These results are taken from article PMC2658021.

The experiment deals with C-terminally FLAG-tagged HPIV3 P protein (P-FLAG) (human parainfluenza virus type 3 (HPIV3)) (UniProt P06162). Description: co-IP.
Sequence of UniProt P06162 (P06162 whole entry): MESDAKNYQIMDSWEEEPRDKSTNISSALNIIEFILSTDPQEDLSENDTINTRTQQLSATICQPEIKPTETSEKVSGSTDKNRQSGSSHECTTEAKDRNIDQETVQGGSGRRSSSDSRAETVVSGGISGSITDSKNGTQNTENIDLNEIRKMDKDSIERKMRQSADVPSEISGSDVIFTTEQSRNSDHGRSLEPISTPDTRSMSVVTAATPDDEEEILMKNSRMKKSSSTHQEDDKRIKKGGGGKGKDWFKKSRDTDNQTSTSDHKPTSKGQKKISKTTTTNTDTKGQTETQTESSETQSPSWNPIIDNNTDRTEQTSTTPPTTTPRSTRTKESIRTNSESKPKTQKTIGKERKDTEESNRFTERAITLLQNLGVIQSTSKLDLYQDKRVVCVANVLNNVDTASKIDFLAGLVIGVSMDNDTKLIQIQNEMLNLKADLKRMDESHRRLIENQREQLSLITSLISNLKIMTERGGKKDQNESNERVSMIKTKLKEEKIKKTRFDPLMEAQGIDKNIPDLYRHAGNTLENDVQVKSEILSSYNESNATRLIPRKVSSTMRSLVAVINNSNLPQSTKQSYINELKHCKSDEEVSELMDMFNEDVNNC

For the substance “L N960, non-tagged (from UniProt P12577 1-960) (domain or fragment)”, the binding as percent of Lwt (phosphoimager) was 26.8 % of Lwt.
